Assay results: patent US11191823 (CHILDREN S MEDICAL CENTER, dated 2021)
“And” between values parts separate entries of the source, which are not always exact repeats. Equal entries are not always repeated.

B1: GD01 IgG (antibody, V domains shown)
VH: EVKLQQSGAELARPGTSVKLSCKASGYTFTNYWMQWIKQRPGQGLEWIGAVYPGDGDTRFSQKFKGKATLTADKSSSTAYMQLSSLSSEDSAVYFCARRRVYYGSNYIYALDYWGQGTSVTVSA
VL: DIVMTQSQKFMSTSIGDRVSITCKASQNVGSAVAWYQQKPGQSPKLLIYSASNRYTGVPDRFIGSESGTDFTLTISNMQSEDLADYFCQQYSSYPLAFGAGTKLELK
B2: CR1-07 IgG (antibody, V domains shown)
VH: QVQLVESGGGVVHPGRSLRLSCAASGFTFGTSIMHWVRQAPGKGMQWVAQISHDESRKFYSDSVKGRFTVSRDNSKNTLFLEMSSLRIEDTAVYYCAKDLSPPYSYAWDIFQYWGQGSLVTVS
VL: DIVMTQSPESLAVSLGERATINCKSSQSVLYSSRSDNKDYLAWYQQKPGQSPKLLIYWASTRESGVPERFTGSGSGTDFTLSISSLQAEDVAVYYCQQYYSSPPTFGGGTKVELK
B3: CR1-28 IgG (antibody, V domains shown)
VH: QVQLVESGGGVVQPGRSLRLSCAASGFTFSSSAMHWVRQAPGKGLEWVAVIWSDGSNENYADSVKGRFTISRDNSKNTLYLQMSSLRAEDTAVYYCATDKTYVSGYTSTWYYFNYWGQGTLVTVS
VL: DIQMTQSPSTLSASVGDRVTITCRASQSIDNWLAWYQQKPGKAPKLLIYTASRLESGVPSRFSGSGSGTEFTLTISSLQPDDFATYYCQHRTFGQGTKVEIK
B4: CR1-07 Fab (Fab, V domains shown)
VH: B2 VH
VL: B2 VL
B5: CR1-28 Fab (Fab, V domains shown)
VH: B3 VH
VL: B3 VL

What was measured:
[1] = target: T1, JUNV GP1 (residues 87-235), biotinylated (Junin virus (JUNV), UniProt P26313 87-235)
[2] = target: T1, JUNV GP1 (residues 87-235), biotinylated; assay: ELISA, plates coated with antigen, IgG titrated
[3] = target: T1, JUNV GP1 (residues 87-235), biotinylated; assay: ELISA, plates coated with biotinylated antigen, IgG titrated
[4] = target: T1, JUNV GP1 (residues 87-235), biotinylated; assay: SPR, Fab over immobilized JUNV GP1

Row | Binder | EC50 (read off the curve) [3] [µg/mL] | Kd [4] [nM] | further results
1 | B1 | – | – | IC50 (read off the curve) [1]: ~8 µg/mL and ~7 µg/mL and ~10 µg/mL; EC50 (read off the curve) [2]: ~0.1 µg/mL
2 | B2 | ~0.2 | – | –
3 | B3 | ~0.1 | – | –
4 | B4 | – | 86.2 | –
5 | B5 | – | 5.3 | –
